The supplement of paper PMC10567573

B1: KRT34 (parent)
chain: YQSYFKTIEELQQKILCAKAENAR
B2: PDZK1 (parent)
chain: QKEQGLSDNILSPVMNGGVQTWTQ

Variants of: B1
Experiment: protein stability index of a GFP-peptide fusion (GPS, HEK-293T) (PSI 1-6); higher = more stable
Details: c terminus: a fixed tail appended
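Note: lentivirally expressed fusions sorted by FACS into six bins by GFP to DsRed ratio, PSI derived from sequencing read proportions per bin multiplied by bin number.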

Protein stability index, by site and new letter:
R24: L 1.77; M 1.02; N 2.25; P 1.57; Q 3.56; S 1.74; T 1.64; V 2.78; W 2.32; Y 2.6

Variants of: B2
Experiment: as above
Details: c terminus: a fixed tail appended

Protein stability index: each site, then its substitutions
Q1: A 2.61; C 1.91; D 3.37; E 3.26; F 1.97; G 2.15; I 2.12; K 2.58; L 2.41; M 2.98; N 2.75; P 3.23; R 2.02; S 2.1; T 2.7; V 1.96; W 1.94; Y 2.47
K2: C 3.57; D 3.23; E 3.35; F 2.26; G 2.76; H 2.81; I 2.42; M 2.51; N 2.88; P 2.67; Q 3.15; R 3.05; S 3.13; T 3.26; Y 3.24
E3: A 3.02; C 2.05; D 3.51; F 1.67; G 1.82; H 2.24; I 2.67; K 4.26; L 2.12; M 2.61; P 2.93; Q 2.18; R 1.52; S 2.02; T 2.88; V 2.05; W 2.17; Y 1.68
Q4: C 2.08; D 3.67; E 2.85; F 2.21; H 2.61; K 2.08; L 2.14; M 1.82; N 2.29; P 2.64; R 3.73; T 2.78; V 2.52; W 1.85; Y 1.98
G5: A 2.4; C 3.57; D 2.85; E 2.82; F 2.44; H 1.98; I 2.48; M 1.99; N 2.7; P 3.15; Q 2.7; R 2.7; S 1.87; T 2.92; W 2.29; Y 1.66
L6: A 2.96; C 2.98; D 2.65; E 3.65; F 1.87; G 2.61; H 3.12; K 4.46; M 2.12; N 3.29; P 3.03; Q 3.92; R 3.71; T 3.27; W 2.56; Y 2.49
S7: A 2.51; C 3.27; D 2.54; E 3.43; F 2; G 3.19; I 2.48; K 2.18; M 2.68; N 2.77; P 3.36; Q 2.13; T 2.09; Y 2.12
D8: C 1.51; E 3.04; F 1.1; G 3.29; I 2.05; K 2.1; L 2.73; M 1.92; N 2.68; P 2.34; R 2.59; S 2.34; T 2.39; V 2.29; W 2.4; Y 2.15
N9: A 2.67; C 2.67; D 3.45; E 3.25; F 1.86; G 2.56; H 2.34; I 2.88; K 1.8; L 2.21; M 2.74; Q 2.5; R 2.05; S 2.75; T 2.56; V 2.38; Y 1.78
I10: A 2.89; C 3.03; E 3.89; F 2.04; G 2.83; H 2.96; K 3.02; M 2.67; N 3.43; Q 3.34; R 2.35; V 2.56; Y 2.6
L11: A 3.47; C 2.63; E 3.97; F 2.13; H 2.75; I 1.89; K 1.64; M 3.25; P 2.48; Q 2; R 2.73; V 3.62; W 2.33; Y 2.5
S12: A 2.58; D 3.84; F 2.76; G 3.21; H 1.74; I 3.58; K 2.18; M 2.22; N 3.27; P 3.76; T 2.36; W 1.95; Y 2.83
P13: A 2.06; C 1.87; F 1.56; H 1.96; I 1.59; K 2.47; N 3.05; Q 2.5; R 2.09; S 2.37; T 2.34; V 2.41; Y 1.9
V14: A 3.29; C 3.74; E 2.78; G 1.5; H 2.46; I 2.4; K 2.54; M 2.65; N 2.77; P 2.47; Q 2.9; R 2.64; S 2.91; T 2.93; Y 1.94
M15: A 1.84; C 1.97; D 3.02; E 3.69; F 1.87; H 2.51; I 2.79; N 2.85; Q 2.46; R 2.24; S 2.21; T 2.97; Y 2.44
N16: C 2.75; D 3.71; E 3.41; F 2.61; H 2.81; I 2.89; K 1.49; L 2.47; P 2.12; Q 1.72; R 2.34; S 2.81; Y 2.45
G17: A 3.96; E 3.27; F 2.19; H 1.91; I 3.36; K 2.13; L 2.8; M 2.36; R 2.04; S 3.31; T 2.25; V 3.6; W 1.85; Y 2.5
G18: A 3.46; C 2.54; D 3.35; E 2.56; F 2.45; H 2.62; I 2.61; K 1.53; L 2.58; M 2.58; N 2.67; P 3.46; R 1.84; S 2.65; V 2.47; W 2.33; Y 2.45
V19: A 2.99; D 4.3; E 3.7; F 2.42; G 2.9; H 2.58; I 2.17; K 2.16; M 1.9; N 2.6; P 3.44; R 1.85; T 3.09; Y 1.86
Q20: A 3.69; C 2.16; D 3.29; E 1.58; F 2.68; G 3.02; I 2.49; K 3.8; L 2.14; N 3.73; P 3.07; S 2.88; T 3; V 2.67; W 3.36; Y 2.68
T21: A 3.61; C 2.66; D 4.85; E 3.71; F 2.75; K 3.46; L 2.68; M 3.63; N 3.65; P 3.74; Q 3.55; R 3.23; W 2.82
W22: A 4.41; C 4.8; D 4.78; E 4.3; F 3.97; H 4.59; I 4.88; K 4.93; M 4.55; N 5.08; P 5.07
